Experimental data taken from patent publication US20090166224A1.

Columns and labels:
[1] = target: Pregnancy zone protein in fucosidase-treated serum (human) (UniProt P20742); test: fucosidase-treated serum on M-LAC column, displacer fraction, LC-MS/MS; smaller rank = more abundant
[2] = target: Inter-alpha-trypsin inhibitor in fucosidase-treated serum (human); test: as above
[3] = target: Inter-alpha-trypsin inhibitor in fucosidase-treated serum (human); test: fucosidase-treated serum on M-LAC column, displacer fraction, extracted ion chromatogram of peptide …
HAPTOGLOBIN-2 (human) [4] = target: HAPTOGLOBIN-2 (human) (UniProt P00738); test: untreated sample on M-LAC column, displacer fraction, peak area of peptide …
[5] = target: Alpha-1-acid-glycoprotein (human) (UniProt P02763); test: as above
Sequence of Alpha-1-acid-glycoprotein (human) (P02763 19-201 limits assumed): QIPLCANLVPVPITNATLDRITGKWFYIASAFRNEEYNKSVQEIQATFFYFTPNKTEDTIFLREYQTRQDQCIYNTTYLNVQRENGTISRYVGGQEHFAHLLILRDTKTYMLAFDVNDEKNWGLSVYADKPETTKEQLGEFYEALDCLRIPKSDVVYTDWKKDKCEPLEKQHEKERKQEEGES

SERO… (human) [6] = target: SERO… (human) (UniProt P02787); test: as above
Sequence of SERO… (human) (P02787 20-698 limits assumed): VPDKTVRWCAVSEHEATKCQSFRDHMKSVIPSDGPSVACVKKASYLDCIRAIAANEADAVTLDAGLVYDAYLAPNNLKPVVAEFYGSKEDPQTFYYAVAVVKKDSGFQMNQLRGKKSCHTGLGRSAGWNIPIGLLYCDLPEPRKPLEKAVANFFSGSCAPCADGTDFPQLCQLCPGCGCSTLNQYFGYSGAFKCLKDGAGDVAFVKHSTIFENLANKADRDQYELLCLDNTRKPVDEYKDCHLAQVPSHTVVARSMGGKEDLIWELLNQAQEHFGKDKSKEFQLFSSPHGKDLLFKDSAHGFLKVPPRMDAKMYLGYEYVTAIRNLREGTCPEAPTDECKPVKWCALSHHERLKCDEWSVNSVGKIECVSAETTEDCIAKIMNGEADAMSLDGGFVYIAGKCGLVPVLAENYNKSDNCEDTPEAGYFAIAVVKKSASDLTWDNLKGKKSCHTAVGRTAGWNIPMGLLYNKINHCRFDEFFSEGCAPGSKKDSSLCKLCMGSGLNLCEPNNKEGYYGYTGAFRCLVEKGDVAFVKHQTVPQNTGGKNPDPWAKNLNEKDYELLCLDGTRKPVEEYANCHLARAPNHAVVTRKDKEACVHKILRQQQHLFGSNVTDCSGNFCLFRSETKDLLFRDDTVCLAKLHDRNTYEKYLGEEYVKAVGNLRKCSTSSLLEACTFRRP

[7] = target: Beta-2-glycoprotein (human) (UniProt P02749); test: as above
Sequence of Beta-2-glycoprotein (human) (P02749 20-345 limits assumed): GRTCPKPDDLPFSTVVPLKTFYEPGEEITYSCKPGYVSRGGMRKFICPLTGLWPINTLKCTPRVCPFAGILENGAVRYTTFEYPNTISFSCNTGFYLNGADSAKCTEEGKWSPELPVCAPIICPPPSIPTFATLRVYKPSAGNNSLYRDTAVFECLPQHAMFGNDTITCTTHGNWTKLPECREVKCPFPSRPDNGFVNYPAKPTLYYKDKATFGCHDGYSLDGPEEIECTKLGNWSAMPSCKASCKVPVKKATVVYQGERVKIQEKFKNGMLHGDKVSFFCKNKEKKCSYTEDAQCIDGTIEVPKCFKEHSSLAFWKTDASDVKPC

[8] = target: Alpha-2HS-glycoprotein in neuraminidase-treated serum (human) (UniProt P02765); test: neuraminidase-treated serum on M-LAC column, displacer fraction, LC-MS/MS; smaller rank = more abundant
[9] = target: Beta-2-glycoprotein in neuraminidase-treated serum (human) (UniProt P02749); test: as above
[10] = target: asialotransferrin (human) (UniProt P02787); test: as above
Sequence of asialotransferrin (human) (P02787 20-698 limits assumed): as the sequence (P02787 20-698 limits assumed) above

[11] = target: Haptoglobin in neuraminidase-treated serum (human) (UniProt P00738); test: as above
[12] = target: Alpha-1-acid-glycoprotein in neuraminidase-treated serum (human) (UniProt P02763); test: as above
Sequence of Alpha-1-acid-glycoprotein in neuraminidase-treated serum (human) (P02763 19-201 limits assumed): as the sequence (P02763 19-201 limits assumed) above

[13] = target: APOLIPOPROTEIN A-I (human) (UniProt P02647); test: human serum on Con A/WGA/Jacalin column, lectin-specific displacer fraction, LC-MS/MS; grade = SEQUEST rank group (+ = ranks 1-5, ++++ = 16-20)
SERO… (human) [14] = target: SERO… (human) (UniProt P02787); test: as above
CERULOPLASMIN (human) = CERULOPLASMIN (human) (UniProt P00450); test: as above
… ZONE PROTEIN (human) [15] = target: … ZONE PROTEIN (human) (UniProt P20742); test: as above
Sequence of … ZONE PROTEIN (human) (P20742 26-1482 limits assumed): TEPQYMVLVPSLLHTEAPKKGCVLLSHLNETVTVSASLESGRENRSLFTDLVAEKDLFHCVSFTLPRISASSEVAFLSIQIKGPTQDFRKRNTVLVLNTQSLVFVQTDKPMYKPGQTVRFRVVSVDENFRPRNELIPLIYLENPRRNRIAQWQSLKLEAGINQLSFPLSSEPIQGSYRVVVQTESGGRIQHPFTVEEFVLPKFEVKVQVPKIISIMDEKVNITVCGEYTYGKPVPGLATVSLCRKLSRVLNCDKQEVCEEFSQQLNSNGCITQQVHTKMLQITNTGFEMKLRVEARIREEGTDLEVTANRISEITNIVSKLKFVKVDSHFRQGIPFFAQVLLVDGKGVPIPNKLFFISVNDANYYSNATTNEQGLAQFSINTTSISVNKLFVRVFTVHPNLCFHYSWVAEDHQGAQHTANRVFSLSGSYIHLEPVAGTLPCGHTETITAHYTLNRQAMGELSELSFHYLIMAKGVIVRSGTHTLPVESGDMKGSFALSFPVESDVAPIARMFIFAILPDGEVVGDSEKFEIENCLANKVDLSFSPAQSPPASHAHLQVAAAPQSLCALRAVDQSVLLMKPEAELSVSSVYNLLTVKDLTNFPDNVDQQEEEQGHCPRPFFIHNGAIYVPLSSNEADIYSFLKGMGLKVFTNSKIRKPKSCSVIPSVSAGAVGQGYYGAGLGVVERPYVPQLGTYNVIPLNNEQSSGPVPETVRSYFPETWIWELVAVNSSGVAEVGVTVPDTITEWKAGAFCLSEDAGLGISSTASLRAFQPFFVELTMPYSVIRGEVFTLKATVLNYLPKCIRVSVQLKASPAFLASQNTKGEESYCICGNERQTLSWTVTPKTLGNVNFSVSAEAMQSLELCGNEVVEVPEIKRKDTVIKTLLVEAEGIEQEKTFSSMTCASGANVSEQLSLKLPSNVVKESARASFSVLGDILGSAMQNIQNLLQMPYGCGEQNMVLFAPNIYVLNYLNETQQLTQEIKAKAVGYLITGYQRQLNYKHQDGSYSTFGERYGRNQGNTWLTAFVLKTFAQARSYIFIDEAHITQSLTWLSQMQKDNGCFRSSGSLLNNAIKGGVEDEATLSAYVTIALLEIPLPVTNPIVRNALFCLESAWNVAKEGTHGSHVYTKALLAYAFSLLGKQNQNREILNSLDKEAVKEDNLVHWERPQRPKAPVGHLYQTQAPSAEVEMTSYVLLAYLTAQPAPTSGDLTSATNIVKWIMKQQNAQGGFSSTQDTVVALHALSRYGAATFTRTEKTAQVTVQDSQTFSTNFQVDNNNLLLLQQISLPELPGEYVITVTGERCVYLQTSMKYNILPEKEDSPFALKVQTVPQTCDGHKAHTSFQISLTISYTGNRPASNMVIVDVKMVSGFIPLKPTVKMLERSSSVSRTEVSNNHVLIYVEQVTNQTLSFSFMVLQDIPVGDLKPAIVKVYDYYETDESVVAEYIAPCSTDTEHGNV

[16] = target: Pregnancy zone protein in fucosidase-treated serum (human) (UniProt P20742); test: fucosidase-treated serum on M-LAC column, displacer fraction, extracted ion chromatogram of peptide … (so in the source)
HAPTOGLOBIN-2 (human) [17] = target: HAPTOGLOBIN-2 (human) (UniProt P00738); test: human serum on M-LAC column, displacer fraction, extracted ion chromatogram of peptide …
[18] = target: Inter-alpha-trypsin inhibitor (human); test: as above
… ZONE PROTEIN (human) [19] = target: … ZONE PROTEIN (human) (UniProt P20742); test: human serum on M-LAC column, displacer fraction, LC-MS/MS; smaller rank = more abundant
[20] = target: Inter-alpha-trypsin inhibitor (human); test: as above
[21] = target: ALPHA-2-HS-GLYCOPROTEIN (human) (UniProt P02765); test: human serum on Con A/WGA/Jacalin column, lectin-specific displacer fraction, LC-MS/MS; grade = SEQUEST rank group (+ = ranks 1-5, ++++ = 16-20)
[22] = target: IG ALPHA-1 CHAIN C REGION (human) (UniProt P01876); test: as above
[23] = target: asialotransferrin (human) (UniProt P02787); test: neuraminidase-treated serum on M-LAC column, displacer fraction, extracted ion chromatogram of peptide …
[24] = target: IG ALPHA-1 CHAIN C REGION (human) (UniProt P01876); test: human serum on M-LAC column, Jacalin displacer fraction, LC-MS/MS; smaller rank = more abundant

Sequence of Pregnancy zone protein in fucosidase-treated serum (human) (P20742 26-1482 limits assumed): as above

Q: How did the SEQUEST rank in displacer fraction [1] turn out when “Concanavalin A (Con A), agarose-bound (from UniProt P02866 30-281)” was run?
A: 25

Q: What about the SEQUEST rank in displacer fraction [2] of the same substance?
A: 13

Q: And the peptide peak area in displacer fraction [3]?
A: 0 counts

Q: What about the peptide peak area in displacer fraction (HAPTOGLOBIN-2 (human) [4]) of the same substance?
A: 39.3

Q: And the peptide peak area in displacer fraction [5]?
A: 9.2

Q: What about the peptide peak area in displacer fraction (SERO… (human) [6]) of the same substance?
A: 23

Q: And the peptide peak area in displacer fraction [7]?
A: 3.5

Q: And the SEQUEST rank in displacer fraction [8]?
A: 31

Q: What about the SEQUEST rank in displacer fraction [9] of the same substance?
A: 24

Q: What about the SEQUEST rank in displacer fraction [10] of the same substance?
A: 2

Q: What about the SEQUEST rank in displacer fraction [11] of the same substance?
A: 7

Q: What about the SEQUEST rank in displacer fraction [12] of the same substance?
A: 96

Q: What about the SEQUEST ranking (relative abundance in the Con A displacement fraction) [13] of the same substance?
A: 11 to 15 rank

Q: What about the SEQUEST ranking (relative abundance in the Con A displacement fraction) (SERO… (human) [14]) of the same substance?
A: 1 to 5 rank

Q: And the SEQUEST ranking (relative abundance in the Con A displacement fraction) (CERULOPLASMIN (human))?
A: 16 to 20 rank

Q: And the SEQUEST ranking (relative abundance in the Con A displacement fraction) (… ZONE PROTEIN (human) [15])?
A: 16 to 20 rank

Q: And the peptide peak area in displacer fraction [16]?
A: 1.6e+07 counts

Q: And the peptide peak area in displacer fraction (HAPTOGLOBIN-2 (human) [17])?
A: 4e+07 counts

Q: What about the peptide peak area in displacer fraction [18] of the same substance?
A: 500000 counts

Q: And the SEQUEST rank in displacer fraction (… ZONE PROTEIN (human) [19])?
A: 34

Q: And the SEQUEST rank in displacer fraction [20]?
A: 22

Q: Which results are given for “Jacalin lectin, agarose-bound (from UniProt P18670 1-133; P18671 1-20)”?
A: peptide peak area in displacer fraction (HAPTOGLOBIN-2 (human) [4]): 10.1; peptide peak area in displacer fraction [5]: 9.7; peptide peak area in displacer fraction (SERO… (human) [6]): 20; peptide peak area in displacer fraction [7]: 2.6; SEQUEST rank in displacer fraction [8]: 7; SEQUEST rank in displacer fraction [9]: 23; SEQUEST rank in displacer fraction [10]: 1; SEQUEST rank in displacer fraction [11]: 9; SEQUEST rank in displacer fraction [12]: 27; SEQUEST ranking (relative abundance in the Jacalin displacement fraction) [21]: 6 to 10 rank; SEQUEST ranking (relative abundance in the Jacalin displacement fraction) (SERO… (human) [14]): 16 to 20 rank; SEQUEST ranking (relative abundance in the Jacalin displacement fraction) [22]: 1 to 5 rank; peptide peak area in displacer fraction ([23]; peptide at M/Z 530.2): 2.4e+07 counts; peptide peak area in displacer fraction ([23]; peptide at M/Z 790.1): 8.3e+06 counts; SEQUEST rank in displacer fraction [24]: 1

Q: Which SEQUEST rank in displacer fraction [1] does the source give for “wheat germ agglutinin (WGA), agarose-bound (from UniProt P10968 27-197)” here?
A: 17

Q: And the peptide peak area in displacer fraction (HAPTOGLOBIN-2 (human) [4])?
A: 236

Q: And the peptide peak area in displacer fraction [5]?
A: 129

Q: And the peptide peak area in displacer fraction (SERO… (human) [6])?
A: 8.1

Q: And the peptide peak area in displacer fraction [7]?
A: 1.8

Q: What about the SEQUEST rank in displacer fraction [11] of the same substance?
A: 2

Q: What about the SEQUEST rank in displacer fraction [12] of the same substance?
A: 23

Q: What about the SEQUEST ranking (relative abundance in the WGA displacement fraction) [21] of the same substance?
A: 11 to 15 rank

Q: And the SEQUEST ranking (relative abundance in the WGA displacement fraction) (… ZONE PROTEIN (human) [15])?
A: 6 to 10 rank

Q: And the peptide peak area in displacer fraction [16]?
A: 5.2e+06 counts

Q: What about the SEQUEST rank in displacer fraction (… ZONE PROTEIN (human) [19]) of the same substance?
A: 7
